According to patent publication US20250304655A1 (CSL BEHRING, published 2025):

Key:
Test in all cases: BLI, LRP1 cluster III immobilised, analyte 2000-31.25 nM, kinetic fit 1:1
heme:Hx-Hp complex = biological target: T1, heme:Hx-Hp complex (human, UniProt P02790 24-462; P00738 162-406, heme bound, not covalent)
T1 construct: The Hx-Hp fusion protein loaded with heme
Protocol: (§1) Streptavidin pre-coated biosensors (Cat No: 18-5019, FortéBio) were used. […] A reference control was included in every experiment (sensor loaded with ligand without analyte). Data was acquired on an OctetRED96 (FortéBio) at 30° C. with the following settings:
(§2) Since the full length receptor is challenging to express recombiantly, we immobilized only a fragment of CD91/LRP1 (cluster III).

[1] = biological target: T2, HuHemopexin-HuHaptoglobin2FS(148-406)-8His (human, UniProt P02790 24-462; P00738 162-406)
T2 construct: Cleaved by co-expressed C1r-LP; the two chains are held by the inter-chain disulphide; Uncomplexed form (no heme, no Hb)
Protocol: as §1, §2

[2] = biological target: T3, heme:Hx (plasma derived hemopexin complexed with heme) (UniProt P02790 24-462, limits assumed, heme bound, not covalent)
T3 construct: mature; Heme-loaded plasma-derived hemopexin, analyte in BLI; also called heme complexed plasma derived Hx; heme-hemopexin complex
T3 sequence (looked up): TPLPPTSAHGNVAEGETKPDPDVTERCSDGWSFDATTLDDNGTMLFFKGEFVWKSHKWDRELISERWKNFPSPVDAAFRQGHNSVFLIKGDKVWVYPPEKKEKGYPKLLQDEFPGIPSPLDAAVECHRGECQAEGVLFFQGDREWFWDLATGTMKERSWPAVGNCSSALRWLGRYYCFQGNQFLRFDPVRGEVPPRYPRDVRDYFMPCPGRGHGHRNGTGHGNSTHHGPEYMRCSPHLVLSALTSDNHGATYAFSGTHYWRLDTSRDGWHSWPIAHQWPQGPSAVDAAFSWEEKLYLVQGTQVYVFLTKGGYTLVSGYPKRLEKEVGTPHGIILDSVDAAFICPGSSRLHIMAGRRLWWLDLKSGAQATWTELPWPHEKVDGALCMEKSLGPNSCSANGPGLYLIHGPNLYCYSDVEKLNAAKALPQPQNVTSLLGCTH
Protocol: as §1, §2

T1 sequence (P00738 other isoform, or with tags, fused parts or gaps): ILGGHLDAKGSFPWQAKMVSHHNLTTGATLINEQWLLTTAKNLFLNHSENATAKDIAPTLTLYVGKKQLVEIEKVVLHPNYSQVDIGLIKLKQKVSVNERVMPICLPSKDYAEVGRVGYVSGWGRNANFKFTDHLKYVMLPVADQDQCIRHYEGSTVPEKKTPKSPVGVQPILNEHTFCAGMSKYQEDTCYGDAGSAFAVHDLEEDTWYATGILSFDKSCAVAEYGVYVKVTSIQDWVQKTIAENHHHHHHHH
T2 sequence (P00738 other isoform, or with tags, fused parts or gaps): as above

Kd (heme:Hx-Hp complex): 480 nM
koff (heme:Hx-Hp complex): 0.044 s⁻¹
kon (heme:Hx-Hp complex): 91000 M⁻¹ s⁻¹
Kd [1]: 2700 nM
koff [1]: 0.039 s⁻¹
kon [1]: 15000 M⁻¹ s⁻¹
Kd [2]: 392 nM
koff [2]: 0.068 s⁻¹
kon [2]: 170000 M⁻¹ s⁻¹
B1: biotinylated LRP1 Cluster III (receptor)
chain: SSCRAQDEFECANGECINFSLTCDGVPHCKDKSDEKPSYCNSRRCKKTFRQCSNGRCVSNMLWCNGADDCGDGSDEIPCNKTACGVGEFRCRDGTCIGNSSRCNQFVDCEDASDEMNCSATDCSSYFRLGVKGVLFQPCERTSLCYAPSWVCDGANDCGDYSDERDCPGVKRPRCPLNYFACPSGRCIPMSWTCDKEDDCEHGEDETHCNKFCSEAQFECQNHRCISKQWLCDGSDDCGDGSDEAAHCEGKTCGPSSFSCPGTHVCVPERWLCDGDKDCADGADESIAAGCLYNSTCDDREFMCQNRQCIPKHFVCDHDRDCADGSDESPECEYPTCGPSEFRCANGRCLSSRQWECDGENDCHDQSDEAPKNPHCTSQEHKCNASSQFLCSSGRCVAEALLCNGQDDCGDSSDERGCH
modifications: biotinylated
notes: Detected with an anti-His antibody, so it appears to carry a His tag; also called LRP1/CD91 domain 3; CD91/LRP1 (cluster III)
